{
  "source": "paper PMC2919415",
  "about": "“Integrating Ion Mobility Mass Spectrometry with Molecular Modelling to Determine the Architecture of Multiprotein Complexes” (PLoS ONE, 2010)",
  "binders": {"B1": {"name": "γ subunit of the γ complex (clamp loader), E. coli (natural protein, UniProt P06710-2 1-431, looked up)", "chain": "MSYQVLARKWRPQTFADVVGQEHVLTALANGLSLGRIHHAYLFSGTRGVGKTSIARLLAKGLNCETGITATPCGVCDNCREIEQGRFVDLIEIDAASRTKVEDTRDLLDNVQYAPARGRFKVYLIDEVHMLSRHSFNALLKTLEEPPEHVKFLLATTDPQKLPVTILSRCLQFHLKALDVEQIRHQLEHILNEEHIAHEPRALQLLARAAEGSLRDALSLTDQAIASGDGQVSTQAVSAMLGTLDDDQALSLVEAMVEANGERVMALINEAAARGIEWEALLVEMLGLLHRIAMVQLSPAALGNDMAAIELRMRELARTIPPTDIQLYYQTLLIGRKELPYAPDRRMGVEMTLLRALAFHPRMPLPEPEVPRQSFAPVAPTAVMTPTQVPPQPQSAPQQAPTVPLPETTSQVLAARQQLQRVQGATKAKKE", "notes": "γ subunit of the E. coli clamp loader (γ complex); the legend speaks of the full length γ subunit against the truncated γ of the crystal structure; also called γ2; γ3; source: overexpressed in E. coli and purified as described [45-48]"}},
  "key": {"[1]": {"target": "the molecule itself", "experiment": "native MS; nano-electrospray ion mobility-MS (Synapt HDMS) of γ alone; 0.1 M NH4OAc pH 6.9"}, "[2]": {"target": "the molecule itself", "experiment": "native MS; nano-electrospray ion mobility-MS (Synapt HDMS) of γδ′ subcomplexes; γ and δ′ mixed 3:2, then exchanged into 0.1 M NH4OAc"}, "[3]": {"target": "T1, δ′ subunit of the γ complex (clamp loader), E. coli (E. coli, UniProt P28631 1-334)", "T1 construct": "δ′ subunit of the E. coli clamp loader (γ complex); source: overexpressed in E. coli and purified as described [45-48]", "experiment": "native MS; nano-electrospray ion mobility-MS (Synapt HDMS) of γδ′ subcomplexes; γ and δ′ mixed 3:2, then exchanged into 0.1 M NH4OAc", "conditions": "both partners purified"}},
  "note": "“And” between values parts separate entries of the source, which are not always exact repeats. Equal values may be shown once.",
  "data": [
    {"binder": "B1", "values": [
      {"measurement": "stoichiometry N", "setting": "[1]", "result": 4},
      {"measurement": "stoichiometry N", "setting": "[2]", "result": "2 and 3"},
      {"measurement": "stoichiometry N", "setting": "[3]", "result": "2 γ per δ′ and 3 γ per δ′"}
    ]}
  ]
}
